Data reported in patent US12545899B2, “Luciferase enzymes for use with thermostable luciferins in bioluminescent assays” (Promega Corporation, priority 2018, dated 2026).

Columns and labels:
[1] = Differential scanning fluorimetry (DSF) analysis; assay type: physicochemical; details: Table 9A
In short: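 Thermal melt with 5× final Sypro Orange: ramp 1° C/min from 30 to 95° C, reading each 60 s, derivative of fluorescence plotted by temperature. Luciferase variants were in 20 mM HEPES pH 7.5, 200 mM NaCl, 1 mM EDTA; other enzymes in 50 mM HEPES pH 7.5, 100 mM NaCl, 2 mM EDTA.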

[2] = Effect of individual mutations: maximum luminescence with CS0333; assay type: biochemical; details: for Vmax (RLU) with CS0333: 10 fM to 1 mM CS0333, Detection Reagent (DR) buffer
Protocol: Experiments were also conducted to evaluate and compare the activities of the various luciferase enzyme variants, including the effects of individual amino acid mutations. To evaluate the effect of individual mutations on luciferase enzyme variants, 0.005 mg/ml luciferase enzyme variant was mixed with 1 mM ATP+10 fM to 1 mM CS0333 in Detection Reagent (DR) buffer.

Molecule | DSF Tm (° C.) [1] [°C] | Vmax (RLU) with CS0333 [2] | improvement of maximum luminescence with CS0333 above background ([2]; single point mutation introduced into the Ppe variant, DR buffer) [fold]
MK0110: SEQ ID NO: 77; H244W (protein) MADKNILYGPEPFYPLEDGTAGEQMFDALSRYAAIPGCIALTNAHTKENVLYEEFLKLSCRLAESFKKYGLKQNDTIAVCSENSLQFFLPVIASLYLGIIVAPVNDKYVERELIHSLGIVKPRIVFCSKNTFQKVLNVKSKLKSIETIIILDLNEDLGGYQCLNNFISQNSDSNLDVKKFKPYSFNRDDQVASIMFSSGTTGLPKGVMLTHKNIVARFSIAKDPTFGDAINPTSAILTVIPFHWGFGMMTTLGYFTCGFRVVLMHTFEEKLFLQSLQDYKVESTLLVPTLMAFLAKSALVEKYDFPHLKEIASGGAPLSKEIGEMVKKRFKLNFVRQGYGLTEATSAVLITPKGDAKPGSTGKIVPLHAVKVVDPTTGKILGPNEPGELYFKGPMKMKGYYNNEEATKAIIDNDGWLRSGDIAYYDNDGHFYIVDRLKSLIKYKGYQVAPAEIEGILLQHPYIVDAGVTGIPDEAAGELPAAGVVVQTGKYLNEQIVQDYVASQVSTAKWLRGGVKFLDEIPKGSTGKIDRKVLRQMLEKHTNGHHHHHHHH | 80 | 9,534 RLU | ~5
MK0117: SEQ ID NO: 84; H244W+T344A+I396K+S193A+N228D+L305F+S306P (protein) MADKNILYGPEPFYPLEDGTAGEQMFDALSRYAAIPGCIALTNAHTKENVLYEEFLKLSCRLAESFKKYGLKQNDTIAVCSENSLQFFLPVIASLYLGIIVAPVNDKYVERELIHSLGIVKPRIVFCSKNTFQKVLNVKSKLKSIETIIILDLNEDLGGYQCLNNFISQNSDSNLDVKKFKPYSFNRDDQVAAIMFSSGTTGLPKGVMLTHKNIVARFSIAKDPTFGDAINPTSAILTVIPFHWGFGMMTTLGYFTCGFRVVLMHTFEEKLFLQSLQDYKVESTLLVPTLMAFLAKSALVEKYDFPHLKEIASGGAPLSKEIGEMVKKRFKLNFVRQGYGLTEATSAVLITPKGDAKPGSTGKIVPLHAVKVVDPTTGKILGPNEPGELYFKGPMKMKGYYNNEEATKAIIDNDGWLRSGDIAYYDNDGHFYIVDRLKSLIKYKGYQVAPAEIEGILLQHPYIVDAGVTGIPDEAAGELPAAGVVVQTGKYLNEQIVQDYVASQVSTAKWLRGGVKFLDEIPKGSTGKIDRKVLRQMLEKHTNGHHHHHHHH | 63 | 3,820,310 RLU | 
MK0118: SEQ ID NO: 85; H244W+T344A+I396K+N228D+L305F+S306P+I109V (protein) MADKNILYGPEPFYPLEDGTAGEQMFDALSRYAAIPGCIALTNAHTKENVLYEEFLKLSCRLAESFKKYGLKQNDTIAVCSENSLQFFLPVIASLYLGIIVAPVNDKYVERELIHSLGIVKPRIVFCSKNTFQKVLNVKSKLKSIETIIILDLNEDLGGYQCLNNFISQNSDSNLDVKKFKPYSFNRDDQVAAIMFSSGTTGLPKGVMLTHKNIVARFSIAKDPTFGDAINPTSAILTVIPFHWGFGMMTTLGYFTCGFRVVLMHTFEEKLFLQSLQDYKVESTLLVPTLMAFLAKSALVEKYDFPHLKEIASGGAPLSKEIGEMVKKRFKLNFVRQGYGLTEATSAVLITPKGDAKPGSTGKIVPLHAVKVVDPTTGKILGPNEPGELYFKGPMKMKGYYNNEEATKAIIDNDGWLRSGDIAYYDNDGHFYIVDRLKSLIKYKGYQVAPAEIEGILLQHPYIVDAGVTGIPDEAAGELPAAGVVVQTGKYLNEQIVQDYVASQVSTAKWLRGGVKFLDEIPKGSTGKIDRKVLRQMLEKHTNGHHHHHHHH | 63 | 3,455,610 RLU | 
MK0113: SEQ ID NO: 80; T344A (protein) MADKNILYGPEPFYPLEDGTAGEQMFDALSRYAAIPGCIALTNAHTKENVLYEEFLKLSCRLAESFKKYGLKQNDTIAVCSENSLQFFLPVIASLYLGIIVAPVNDKYVERELIHSLGIVKPRIVFCSKNTFQKVLNVKSKLKSIETIIILDLNEDLGGYQCLNNFISQNSDSNLDVKKFKPYSFNRDDQVAAIMFSSGTTGLPKGVMLTHKNIVARFSIAKDPTFGDAINPTSAILTVIPFHWGFGMMTTLGYFTCGFRVVLMHTFEEKLFLQSLQDYKVESTLLVPTLMAFLAKSALVEKYDFSHLKEIASGGAPLSKEIGEMVKKRFKLNFVRQGYGLTEATSAVLITPKGDAKPGSTGKIVPLHAVKVVDPTTGKILGPNEPGELYFKGPMKMKGYYNNEEATKAIIDNDGWLRSGDIAYYDNDGHFYIVDRLKSLIKYKGYQVAPAEIEGILLQHPYIVDAGVTGIPDEAAGELPAAGVVVQTGKYLNEQIVQDYVASQVSTAKWLRGGVKFLDEIPKGSTGKIDRKVLRQMLEKHTNGHHHHHHHH | 71 | 1,948 RLU | 
MK0114: SEQ ID NO: 81; T344M (protein) MADKNILYGPEPFYPLEDGTAGEQMFDALSRYAAIPGCIALTNAHTKENVLYEEFLKLSCRLAESFKKYGLKQNDTIAVCSENSLQFFLPVIASLYLGIIVAPVNDKYVERELIHSLGIVKPRIVFCSKNTFQKVLNVKSKLKSIETIIILDLNEDLGGYQCLNNFISQNSDSNLDVKKFKPYSFNRDDQVAAIMFSSGTTGLPKGVMLTHKNIVARFSIAKDPTFGDAINPTSAILTVIPFHWGFGMMTTLGYFTCGFRVVLMHTFEEKLFLQSLQDYKVESTLLVPTLMAFLAKSALVEKYDFPHLKEIASGGAPLSKEIGEMVKKRFKLNFVRQGYGLTETTSAVLITPKGDAKPGSTGKIVPLHAVKVVDPTTGKILGPNEPGELYFKGPMKMKGYYNNEEATKAIIDNDGWLRSGDIAYYDNDGHFYIVDRLKSLIKYKGYQVAPAEIEGILLQHPYIVDAGVTGIPDEAAGELPAAGVVVQTGKYLNEQIVQDYVASQVSTAKWLRGGVKFLDEIPKGSTGKIDRKVLRQMLEKHTNGHHHHHHHH | 70 | 1,030 RLU | 
MK0115: SEQ ID NO: 82; I396K (protein) MADKNILYGPEPFYPLEDGTAGEQMFDALSRYAAIPGCIALTNAHTKENVLYEEFLKLSCRLAESFKKYGLKQNDTIAVCSENSLQFFLPVIASLYLGIIVAPVNDKYVERELIHSLGIVKPRIVFCSKNTFQKVLNVKSKLKSIETIIILDLNEDLGGYQCLNNFISQNSDSNLDVKKFKPYSFNRDDQVAAIMFSSGTTGLPKGVMLTHKNIVARFSIAKDPTFGDAINPTSAILTVIPFHWGFGMMTTLGYFTCGFRVVLMHTFEEKLFLQSLQDYKVESTLLVPTLMAFLAKSALVEKYDFPHLKEIASGGAPLSKEIGEMVKKRFKLNFVRQGYGLTEATSAVLITPKGDAKPGSTGKIVPLHAVKVVDPTTGKILGPNEPGELYFKGPMIMKGYYNNEEATKAIIDNDGWLRSGDIAYYDNDGHFYIVDRLKSLIKYKGYQVAPAEIEGILLQHPYIVDAGVTGIPDEAAGELPAAGVVVQTGKYLNEQIVQDYVASQVSTAKWLRGGVKFLDEIPKGSTGKIDRKVLRQMLEKHTNGHHHHHHHH | 67 | 2,120 RLU | 
MK0116: SEQ ID NO: 83; I396L (protein) MADKNILYGPEPFYPLEDGTAGEQMFDALSRYAAIPGCIALTNAHTKENVLYEEFLKLSCRLAESFKKYGLKQNDTIAVCSENSLQFFLPVIASLYLGIIVAPVNDKYVERELIHSLGIVKPRIVFCSKNTFQKVLNVKSKLKSIETIIILDLNEDLGGYQCLNNFISQNSDSNLDVKKFKPYSFNRDDQVAAIMFSSGTTGLPKGVMLTHKNIVARFSIAKDPTFGNAINPTSAILTVIPFHWGFGMMTTLGYFTCGFRVVLMHTFEEKLFLQSLQDYKVESTLLVPTLMAFLAKSALVEKYDFPHLKEIASGGAPLSKEIGEMVKKRFKLNFVRQGYGLTEATSAVLITPKGDAKPGSTGKIVPLHAVKVVDPTTGKILGPNEPGELYFKGPMKMKGYYNNEEATKAIIDNDGWLRSGDIAYYDNDGHFYIVDRLKSLIKYKGYQVAPAEIEGILLQHPYIVDAGVTGIPDEAAGELPAAGVVVQTGKYLNEQIVQDYVASQVSTAKWLRGGVKFLDEIPKGSTGKIDRKVLRQMLEKHTNGHHHHHHHH | 73 | 7,428 RLU | 
MK0111: SEQ ID NO: 78; L305F (protein) MADKNILYGPEPFYPLEDGTAGEQMFDALSRYAAIPGCIALTNAHTKENVLYEEFLKLSCRLAESFKKYGLKQNDTIAVCSENSLQFFLPVIASLYLGIIVAPVNDKYVERELIHSLGIVKPRIVFCSKNTFQKVLNVKSKLKSIETIIILDLNEDLGGYQCLNNFISQNSDSNLDVKKFKPYSFNRDDQVAAIMFSSGTTGLPKGVMLTHKNIVARFSIAKDPTFGDAINPTSAILTVIPFHHGFGMMTTLGYFTCGFRVVLMHTFEEKLFLQSLQDYKVESTLLVPTLMAFLAKSALVEKYDFPHLKEIASGGAPLSKEIGEMVKKRFKLNFVRQGYGLTEATSAVLITPKGDAKPGSTGKIVPLHAVKVVDPTTGKILGPNEPGELYFKGPMKMKGYYNNEEATKAIIDNDGWLRSGDIAYYDNDGHFYIVDRLKSLIKYKGYQVAPAEIEGILLQHPYIVDAGVTGIPDEAAGELPAAGVVVQTGKYLNEQIVQDYVASQVSTAKWLRGGVKFLDEIPKGSTGKIDRKVLRQMLEKHTNGHHHHHHHH | 79 | 1,166 RLU | 
MK0112: SEQ ID NO: 79; S306P (protein) MADKNILYGPEPFYPLEDGTAGEQMFDALSRYAAIPGCIALTNAHTKENVLYEEFLKLSCRLAESFKKYGLKQNDTIAVCSENSLQFFLPVIASLYLGIIVAPVNDKYVERELIHSLGIVKPRIVFCSKNTFQKVLNVKSKLKSIETIIILDLNEDLGGYQCLNNFISQNSDSNLDVKKFKPYSFNRDDQVAAIMFSSGTTGLPKGVMLTHKNIVARFSIAKDPTFGDAINPTSAILTVIPFHWGFGMMTTLGYFTCGFRVVLMHTFEEKLFLQSLQDYKVESTLLVPTLMAFLAKSALVEKYDLPHLKEIASGGAPLSKEIGEMVKKRFKLNFVRQGYGLTEATSAVLITPKGDAKPGSTGKIVPLHAVKVVDPTTGKILGPNEPGELYFKGPMKMKGYYNNEEATKAIIDNDGWLRSGDIAYYDNDGHFYIVDRLKSLIKYKGYQVAPAEIEGILLQHPYIVDAGVTGIPDEAAGELPAAGVVVQTGKYLNEQIVQDYVASQVSTAKWLRGGVKFLDEIPKGSTGKIDRKVLRQMLEKHTNGHHHHHHHH | 80 | 1,232 RLU | 
